B1: VH1_A8/Vκ1 IgG4 (antibody, V domains shown)
VH: QVQLVQSGAELKKPGASVKLSCKASGYTFTSYGISWVKQATGQGLEWIGEIYPRSGNTYYNEKFKGRATLTADKSTSTAYMELRSLKSEDSAVYFCARSTTVSPPAHWGTGTTVTVSS
VL: DIQMTQSPSYLSASVGDRVTITCKASDHINNWLAWYQQKPGQAPRLLISGATSLETGVPSRFSGSGTGKDYTLTISSLQTEDFATYYCQQYWSTPYTFGGGTKVEIK
notes: Human IgG4, kappa

How the values were obtained:
[1] = target: monomeric His-tagged human FcRn (JTA), produced in-house (human) (UniProt P55899); test: SPR, IgG amine-coupled, monomeric His-hFcRn injected, 1:1 Langmuir, pH 6.0
Chain of monomeric His-tagged human FcRn (JTA), produced in-house (human) (P55899 24-297 limits assumed, chain 1 of 2): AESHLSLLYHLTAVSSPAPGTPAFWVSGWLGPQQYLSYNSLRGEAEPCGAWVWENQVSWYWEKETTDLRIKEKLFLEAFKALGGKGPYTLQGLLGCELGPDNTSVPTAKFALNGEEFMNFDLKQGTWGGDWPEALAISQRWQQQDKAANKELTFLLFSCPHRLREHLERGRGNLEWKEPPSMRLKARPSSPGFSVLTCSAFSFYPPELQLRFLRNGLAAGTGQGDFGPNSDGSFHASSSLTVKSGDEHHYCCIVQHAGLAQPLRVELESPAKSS
Chain of monomeric His-tagged human FcRn (JTA), produced in-house (human) (P61769 21-119 limits assumed, chain 2 of 2, further chain): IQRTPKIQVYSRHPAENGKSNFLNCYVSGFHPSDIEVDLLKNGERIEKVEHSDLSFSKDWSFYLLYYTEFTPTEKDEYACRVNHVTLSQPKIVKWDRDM

[2] = target: monomeric His-tagged human FcRn (JTA), produced in-house (human) (UniProt P55899); test: SPR, IgG amine-coupled, monomeric His-hFcRn injected, pH 6.0; first of two values in the cell
[3] = target: monomeric His-tagged human FcRn (JTA), produced in-house (human) (UniProt P55899); test: SPR, IgG amine-coupled, monomeric His-hFcRn injected, pH 6.0; second value (steady-state affinity model by the footnote)
[4] = target: T1, recombinant human FcRn (Sino Biological Inc. Cat. No. CT009-H08H) (human, UniProt P55899 24-297; P61769 21-119); test: competition ELISA vs biotinylated human serum IgG, captured FcRn, pH 6.0
T1 construct: Bought protein; also called immobilized FcRn; hFcRn (SINO)
T1 sequence (P55899 24-297 limits assumed, chain 1 of 2): as the sequence (P55899 24-297 limits assumed, chain 1 of 2) above
T1 sequence (P61769 21-119 limits assumed, chain 2 of 2): as the sequence (P61769 21-119 limits assumed, chain 2 of 2, further chain) above
Description: The following day, 0.5 μg/ml recombinant human FcRn (Sino Biological Inc. cat. no. CT009-H08H) diluted in PBS pH 7.4 was added to the wells and incubated for one hour at 37° C. After washing the plates 3× with PBST pH 7.4, the plates were blocked with PBSM pH 7.4 for one hour at 37° C. From this point onwards, all wash and incubation steps were performed at assay pH 6.0.

[5] = target: T1, recombinant human FcRn (Sino Biological …); test: competition ELISA vs biotinylated parent murine antibody, captured FcRn, pH 6.0
Description: (§1) The following day, 1 μg/ml recombinant human FcRn (Sino Biological Inc. cat. no. CT009-H08H) diluted in PBS pH 7.4 was added to the wells and incubated for 1 hour at 37° C. After washing the plates 3× with PBST pH 7.4, the plates were blocked with PBSM pH 7.4 for 1 hour at 37° C. From this point onwards, all wash and incubation steps were performed at the chosen assay pH (pH 6.0 or 7.4).
(§2) Additional combinations of humanized affinity matured heavy chains and humanized affinity matured light chains were tested in the competition ELISA. Combinations of humanized affinity matured heavy chains and humanized non-affinity matured light chains also were tested.

[6] = target: T1, recombinant human FcRn (Sino Biological …); test: competition ELISA vs biotinylated parent murine antibody, captured FcRn, pH 7.4
Description: as §1, §2

Molecule	koff [1] [s⁻¹]	kon [1] [M⁻¹ s⁻¹]	Kd [2] [nM]	Kd [3] [nM]	average relative IC50 [4]	average relative IC50 [5]	average relative IC50 [6]
human IgG1 (antibody)	0.0824	108000	763	1250			
human IgG4 (antibody)			1010	970			
B1					0.53 relative to parent murine antibody	0.87 relative to chimeric parent murine antibody	0.89 relative to chimeric parent murine antibody
